# Source: patent US20150104459A1
# “And” between values parts separate entries of the source, which are not always exact repeats. Equal values may be shown once.
# Tests used:
# Settings in all cases: remark: other sources report otherwise
# [1] = target: recombinant soluble homotrimeric HA of A/Wisconsin/67/05 (H3N2) (Influenza A virus A/Wisconsin/67/2005 (H3N2)); test: HA microarray, BCC supernatant
# [2] = target: recombinant soluble homotrimeric HA of A/Japan/305/57 (H2N2) (Influenza A virus A/Japan/305/1957 (H2N2)); test: HA microarray, BCC supernatant
# [3] = target: recombinant soluble homotrimeric HA of A/Solomon Islands/3/06 (H1N1) (Influenza A virus A/Solomon Islands/3/2006 (H1N1)); test: HA microarray, BCC supernatant
# [4] = target: recombinant soluble homotrimeric HA of A/chicken/Vietnam/NCVD-016/08 (H5N1) (Influenza A virus A/chicken/Vietnam/NCVD-016/2008 (H5N1)); test: HA microarray, BCC supernatant
# [5] = target: recombinant homotrimeric HA, A/Solomon Islands/3/06 H1N1 (Influenza A virus A/Solomon Islands/3/06 (H1N1)); test: trimeric HA microarray; transfection supernatant set 3
# [6] = target: recombinant soluble homotrimeric HA of A/duck/Yangzhou/02/2005 (H8N4) (Influenza A virus A/duck/Yangzhou/02/2005 (H8N4)); test: HA microarray, BCC supernatant
# [7] = target: recombinant homotrimeric HA, A/Vietnam/1203/04 H5N1 (Influenza A virus A/Vietnam/1203/04 (H5N1)); test: trimeric HA microarray; transfection supernatant set 3
# [8] = target: recombinant homotrimeric HA, A/Japan/305/57 H2N2 (Influenza A virus A/Japan/305/57 (H2N2)); test: as above
# [9] = target: recombinant soluble homotrimeric HA, A/Hong Kong/156/97 (H5N1) (influenza A virus A/Hong Kong/156/97 (H5N1)); test: microarray, trimeric HA, transfection supernatant
# [10] = target: recombinant soluble homotrimeric HA, A/northern shoveler/California/HKWF115/2007 (H6N1) (influenza A virus A/northern shoveler/California/HKWF115/2007 (H6N1)); test: microarray, trimeric HA, transfection supernatant
# [11] = target: recombinant soluble homotrimeric HA, A/Hong Kong/1073/99 (H9N2) (influenza A virus A/Hong Kong/1073/99 (H9N2)); test: microarray, trimeric HA, transfection supernatant
# [12] = target: recombinant soluble homotrimeric HA, A/chicken/Vietnam/NCVD-016/08 (H5N1) (influenza A virus A/chicken/Vietnam/NCVD-016/2008 (H5N1)); test: microarray, trimeric HA, transfection supernatant
# [13] = target: recombinant soluble homotrimeric HA of A/Egypt/3300-NAMRU3/08 (H5N1) (Influenza A virus A/Egypt/3300-NAMRU3/2008 (H5N1)); test: HA microarray, BCC supernatant
# [14] = target: recombinant soluble homotrimeric HA of A/California/4/09 (H1N1) (Influenza A virus A/California/04/2009 (H1N1)); test: HA microarray, BCC supernatant
# [15] = target: recombinant soluble homotrimeric HA of A/Indonesia/5/05 (H5N1) (Influenza A virus A/Indonesia/5/2005 (H5N1)); test: HA microarray, BCC supernatant
# [16] = target: recombinant soluble homotrimeric HA of A/Anhui/1/05 (H5N1) (Influenza A virus A/Anhui/1/2005 (H5N1)); test: HA microarray, BCC supernatant
# [17] = target: recombinant soluble homotrimeric HA of A/northern shoveler/California/HKWF115/2007 (H6N1) (Influenza A virus A/northern shoveler/California/HKWF115/2007 (H6N1)); test: HA microarray, BCC supernatant
# [18] = target: recombinant soluble homotrimeric HA of A/Vietnam/1203/04 (H5N1) (Influenza A virus A/Vietnam/1203/2004 (H5N1)); test: HA microarray, BCC supernatant
# [19] = target: recombinant soluble homotrimeric HA of A/swine/Ontario/01911-2/99 (H4N6) (Influenza A virus A/Swine/Ontario/01911-2/99 (H4N6)); test: HA microarray, BCC supernatant
# [20] = target: recombinant homotrimeric HA, A/swine/Ontario/01911-2/99 H4N6 (Influenza A virus A/swine/Ontario/01911-2/99 (H4N6)); test: trimeric HA microarray; transfection supernatant set 5
# [21] = target: recombinant soluble homotrimeric HA, A/duck/Yangzhou/02/2005 (H8N4) (influenza A virus A/duck/Yangzhou/02/2005 (H8N4)); test: microarray, trimeric HA, transfection supernatant
# [22] = target: recombinant soluble homotrimeric HA, A/Netherlands/219/03 (H7N7) (influenza A virus A/Netherlands/219/03 (H7N7)); test: microarray, trimeric HA, transfection supernatant
# [23] = target: recombinant soluble homotrimeric HA, A/Anhui/1/05 (H5N1) (influenza A virus A/Anhui/1/2005 (H5N1)); test: microarray, trimeric HA, transfection supernatant
# [24] = target: recombinant soluble homotrimeric HA of A/Netherlands/219/03 (H7N7) (Influenza A virus A/Netherlands/219/03 (H7N7)); test: HA microarray, BCC supernatant
# [25] = target: recombinant soluble homotrimeric HA of A/Hong Kong/2108/03 (H9N2) (Influenza A virus A/Hong Kong/2108/2003 (H9N2)); test: HA microarray, BCC supernatant
# [26] = target: recombinant homotrimeric HA, A/Wisconsin/67/05 H3N2 (Influenza A virus A/Wisconsin/67/05 (H3N2)); test: trimeric HA microarray; transfection supernatant set 5
Binder,Trimeric HA Binding RLU [1] [RLU],Trimeric HA Binding RLU [2] [RLU],Trimeric HA Binding RLU [3] [RLU],Trimeric HA Binding RLU [4] [RLU],Trimeric HA Binding RLU [6] [RLU],Trimeric HA Binding RLU [9] [RLU],Trimeric HA Binding RLU [10],Trimeric HA Binding RLU [12],Trimeric HA Binding RLU [13] [RLU],Trimeric HA Binding RLU [14] [RLU],Trimeric HA Binding RLU [15] [RLU],Trimeric HA Binding RLU [16] [RLU],Trimeric HA Binding RLU [17] [RLU],Trimeric HA Binding RLU [18] [RLU],Trimeric HA Binding RLU [19] [RLU],further results
"TCN-529 (5297_H01) (antibody, V domains shown) VH: QITLRESGPTLVKPTQTLTLTCTFSGFSLSTNGVNVGWIRQPPGKALEWLALIYWDDDKRYSPSLKRRLTITKDTSKNQVVLTLTNMDPVDTATYYCAHRPDFYGDFEYWGPGTLVTVSS VL: QSALTQPASVSGSPGQSITISCTGSSSDIGGYNYVSWYQQHPGKAPKLMIYDVNNRPSGVSNRFSGSKSGNTASLTISGLQTDDEADYYCGSYTGSPHYVFGTGTKVTVL",51600,435,179,410,,,,,,,,,,,,Trimeric HA Binding: RLU [5]: 43 RLU
"TCN-531 (5091_H13) (antibody, V domains shown) VH: EVQLVESGGDLVQPGRSLKLSCTGSGFTFGDYGVTWVRQAPGKGLEWVGFIRTRPWGGTADTAASVKGRFTISRDDSKSLAYLQMNSLKTEDTAVYYCCRDAPPNVEVASMTNWYFDLWGRGTLVTVSS VL: DIQLTQSPSSLSASVGDRVTITCRASQGILNCLAWYQQKPGKVPNLLMYAASTLQSGVPSRFSGSGFGTDFTLTISSLQPEDVATYYCQTYGGVSTFGGGTKVEIR",7090,410,,,3120,,,,,,,,,,,Trimeric HA Binding: RLU [7]: 2410 RLU; Trimeric HA Binding: RLU [8]: 489 RLU
"TCN-523 (5248_A17) (antibody, V domains shown) VH: QVQLVQSGAEVKKPGSSVKVSCKASGGSFSNYAFSWVRQAPGQGLEWMGGTIPLLGTTNYAQKFQGRVTISADQFTSTAYMELGSLRSEDTAVYYCTRRKMTTAFDSWGQGTLVTVSS VL: QPVLTQPPSASASLGASVTLTCTLSSAYSNYKVDWYQQRPGKGPRFVMRVGTGGIVGSKGDGIPDRFSVLGSGLNRYLTIKNIQEEDESDYHCGADHGSGSNFVSPYVFGGGTKLTVL",,5110,37900,48900,,28400,29400 RLU and 25100 RLU and 46900 RLU,18900 RLU and 24000 RLU and 51300 RLU,36500,34700,45800,5700,46900,3380,,Trimeric HA Binding RLU [11]: 24200 RLU and 24600 RLU
"TCN-555 (5246_L16) (antibody, V domains shown) VH: QVQLVQSGAEVKRPGSSVKVSCTASGGIFRKNAISWVRQAPGQGLEWMGGIIAVFNTANYAQKFQNRVKITADESGNTAYMELSSLTSDDTAVYYCASHPKYFYGSGSYPDFWGQGTLVTVSS VL: QSALTQPRSVSGSPGQSITISCTGGSSDIGASNSVSWYQQHPGKAPKLVIFDVTERPSGVPHRFSGSKSGNTASLTVSGLQPDDEADYFCCAYGGKYLVVFGGGTKVTVL",9800,2130,26400,22300,18400,36300,28700 RLU,35200 RLU,42700,44900,34500,1500,49500,876,1950,Trimeric HA Binding: RLU [20]: 4520 RLU
"TCN-557 (5081_A04) (antibody, V domains shown) VH: QVQLVQSGAEVKKPGASVKVSCKASGHTFTGYYIHWVRQAPGQGLEWMGWINPDSGATSSAQNFQGRVTMTGDTSSSTAYMELSRLSFDDTAVYYCARVLFTSPFDFWGEGTLVTVSS VL: QAVVTQEPSLAVSPGGTVTLTCGSSTGAVTRGHYPYWFQQKPGQAPRALIYDSAGNRHSWTPARFSGSLLGGKAALTLSGAQPEDEAEYYCLLSYSGVWVFGGGTKLTVL",10200,43400,40700,45500,50100,27100,49600 RLU,23300 RLU,,17600,45200,46000,24400,47300,27000,Trimeric HA Binding RLU [21]: 24000 RLU; Trimeric HA Binding RLU [22]: 53700 RLU; Trimeric HA Binding RLU [23]: 20000 RLU; Trimeric HA Binding RLU [24]: 6780 RLU; Trimeric HA Binding RLU [25]: 35300 RLU
"TCN-535 (5246_P19) (antibody, V domains shown) VH: QVQLVQSGSEVKKPGTSVKVSCTASGSVFTNYGISWVRQAPGQGLEWMGGIIPLFGAAKYAQKFQGRVTITADESTKTVYMELSRLTSKDTAIYFCAKAPRVYEYYFDQWGQGTPVTVSS VL: EIVLTQSPGTLSLSPGERATLSCRASQSVSSSQLAWYQQKPGQAPRLIIYGASTRATGIPDRFSGSGSGTDFTLTIGRLEPEDFAVFFCQQYSTSPPTFGQGTKVDFK",34300,26100,39400,50000,36600,,18100 RLU,20900 RLU,39400,48600,45600,6880,48200,4740,5950,Trimeric HA Binding RLU [11]: 21200 RLU
"TCN-538 (3206_O17) (antibody, V domains shown) VH: QITLKESGPTLVKPTQTLTLTCVFSGFSLSITGVRVGWIRQPPGKALEWLALISWDDEKHYSPSLQSRLTITKDTSKNQVVLTMTNLDPVDTATYYCARSTDRGHVLRYFGWMLPGDAFDVWGQGTMVTVSS VL: DIVMTQSPDFLPVSLGERATINCKSSQRVLYSSNNKNYLAWYQLKPGQPPKLIIYWASTRESGVPDRFSGSGSGTEFTLTISSLQAEDVAVYYCQQYYSRPYTFGQGTKLEIK",6900,43000,33200,37300,6120,5170,8900 RLU,2950 RLU,23600,13800,26400,,17400,,,Trimeric HA Binding RLU [24]: 6530 RLU; Trimeric HA Binding: RLU [26]: 2070 RLU
